Data published in US20260276625A1, “SCREENING METHOD FOR COMPOUND INDUCING AUTOPHAGY” (TOHOKU UNIVERSITY, priority 2023, published 2026).

Legend:
[1] = molecular target: LgBiT-p62 (p62 fused at its N-terminus to the Large BiT luciferase fragment; expressed from pLgBiT-p62) (not stated (cDNA from total RNA of HeLa cells)) (UniProt Q13501); test: NanoBiT split-luciferase complementation in HeLa cells co-transfected with pLgBiT-p62 and pSmBiT-DDX5; told of each of AUTAC2-2G, AUTAC4-2G, 8-nitro-cGMP and FBnG at 10 uM
[2] = molecular target: LgBiT-p62 (p62 fused at its N-terminus to the Large BiT luciferase fragment; expressed from pLgBiT-p62) (not stated (cDNA from total RNA of HeLa cells)) (UniProt Q13501); test: NanoBiT split-luciferase complementation in HeLa cells co-transfected with pLgBiT-p62 and pSmBiT-DDX5; told of each of compounds 5 to 33 at 10 uM, 24 h
[3] = molecular target: LgBiT-p62 (p62 fused at its N-terminus to the Large BiT luciferase fragment; expressed from pLgBiT-p62) (not stated (cDNA from total RNA of HeLa cells)) (UniProt Q13501); test: NanoBiT split-luciferase complementation in HeLa cells co-transfected with pLgBiT-p62 and pSmBiT-DDX5, treated with 10 uM AUTAC2-2G, AUTAC4-2G, 8-nitro-cGMP or FBnG; read 10 min after start of measurement (FIG. 1)
[4] = molecular target: LgBiT-p62 (p62 fused at its N-terminus to the Large BiT luciferase fragment; expressed from pLgBiT-p62) (not stated (cDNA from total RNA of HeLa cells)) (UniProt Q13501); test: NanoBiT split-luciferase complementation in HeLa cells co-transfected with pLgBiT-p62 and pSmBiT-DDX5, treated with 10 uM of compounds 5 to 33 or AUTAC2-2G; read 10 min after start of measurement (FIG. 2)

- emission intensity, fold over cells treated with DMSO (times (vs DMSO-treated cells)) [1]: > 1000
- emission intensity, fold over cells treated with DMSO (times (vs DMSO-treated cells)) [2]: > 1000
- emission intensity (NanoBiT luminescence) [3]: 1e+07
- emission intensity (NanoBiT luminescence) [4]: > 1e+07
Substance: SmBiT-DDX5 (DDX5, DEAD box protein 5, fused at its N-terminus to the Small BiT luciferase fragment; expressed from pSmBiT-DDX5) (from UniProt P17844 1-614)
